Experimental data as given in PMC5970223, “Multiplexed profiling of GPCR activities by combining split TEV assays and EXT-based barcoded readouts” (Scientific Reports, 2018).
Counter-ions that a name gives are not always drawn.

How the values were obtained:
[1] = test system: dopamine and the adrenergic receptors; settings: U2OS cells, agonist 100 pM to 100 µM
Experimental: (§1) Two hours after transfection, all cell populations were pooled, mixed, and evenly divided into fractions for plating onto assay dishes (Fig. 2a). The cells were cultured and stimulated under identical conditions for agonist or antagonist assays as initially described for GPCR split TEV assays (Supplementary Fig. S1a,b).
(§2) After cell lysis, RNA from each sample was isolated and converted into cDNA by reverse transcription. […] This permits the mixing of all samples and sequencing of all pooled samples using a single sequencing run (Fig. 2b). The sample barcodes enable tracing experimental conditions, whereas the read counts per EXTs serve as quantitative measurements for the corresponding GPCRs. […] From the normalized data the fold changes of receptor activities were finally calculated.
(§3) In addition to the stimulation with the single compounds, a compound-mixture (mix) of all agonists was tested. The first set of experiments were carried out in the human osteosarcoma cell line U2OS. We normalized the raw sequencing data to total read numbers of sample codes, followed by averaging reads of internal and external calibrator EXTs as described above (Supplementary Fig. S4).
(§4) Cells were resuspended in culture medium without antibiotics at a density of 1.5 × 10^6 cells/ml (U2OS) or 3 × 10^6 cells/ml (PC12). […] Transfection-mixes were added to cell suspensions and incubated for 2 h at 37 °C without shaking. Suspensions were centrifuged for 5 min at 900 rpm and resuspended in culture medium to remove transfection reagents. All transfection samples were combined within one pool and plated on multiple wells of 6-well plates and incubated for 24 h at 37 °C. Afterwards, cells were starved for 17–18 h and then treated with compounds for 6 h in duplicates. After compound treatment cells were washed with PBS and 500 µl RLT lysis buffer was applied for cell lysis. Lysates were processed for sequencing as described below.
RNA was additional in solution treated with Turbo DNase (Ambion) for 30 min at 37 °C and repurified over an RNeasy column. […]

[2] = test system: T1, somatostatin receptor SSTR1; assay: multiplexed GPCRprofiler assay in U2OS cells; type: cell-based, human; settings: agonist 100 pM to 100 µM
T1 construct: ORFs of GPCRs were PCR amplified; expressed in transfected cells; host or cells: U2OS
Experimental: as §1, §2, §3, §4
(§5) RNA was additional in solution treated with Turbo DNase (Ambion) for 30 min at 37 °C and repurified over an RNeasy column. First-strand cDNA synthesis was performed with 1 µg total RNA using superscript III reverse transcriptase (Invitrogen) and 120 pmol of a random nanomer primer. […] On order to differentiate different samples 13mer barcodes were introduced between 5′ Ion adapter and target sequence. All processed samples of an experiment were combined within one pool and purified using PCR clean-up kit (Macherey-Nagel).
(§6) Raw sequencing data analyses were done by using BLAST algorithm and in-house developed R scripts.

[3] = test system: T2, somatostatin receptor SSTR2; assay: multiplexed GPCRprofiler assay in U2OS cells; type: cell-based, human; settings: agonist 100 pM to 100 µM
T2 construct: ORFs of GPCRs were PCR amplified; expressed in transfected cells; host or cells: U2OS
Experimental: as §1, §2, §3, §4, §5, §6

[4] = test system: T3, somatostatin receptor SSTR3; assay: multiplexed GPCRprofiler assay in U2OS cells; type: cell-based, human; settings: agonist 100 pM to 100 µM
T3 construct: ORFs of GPCRs were PCR amplified; expressed in transfected cells; host or cells: U2OS
Experimental: as §1, §2, §3, §4, §5, §6

[5] = test system: T4, Vasopressin receptor AVPR1A; assay: multiplexed GPCRprofiler assay in U2OS cells; type: cell-based, human; settings: agonist 100 pM to 100 µM
T4 construct: ORFs of GPCRs were PCR amplified; expressed in transfected cells; host or cells: U2OS
Experimental: as §1, §2, §3, §4, §5, §6

[6] = test system: T5, Vasopressin receptor AVPR2; assay: multiplexed GPCRprofiler assay in U2OS cells; type: cell-based, human; settings: agonist 100 pM to 100 µM
T5 construct: ORFs of GPCRs were PCR amplified; expressed in transfected cells; host or cells: U2OS
Experimental: as §1, §2, §3, §4, §5, §6

[7] = target: ADRA1A-V2R-NTEV-tevS-GV (human) (UniProt P35348); assay: split reporter (BiFC, NanoBiT); multiplexed GPCRprofiler: split TEV with EXT barcode read-out, identical experiment in PC12 cells (Supplementary Fig. S5)
[8] = target: AVPR1A-V2R-NTEV-tevS-GV (human) (UniProt P37288); assay: as above
[9] = target: HTR2A-V2R-NTEV-tevS-GV (human) (UniProt P28223); assay: as above
[10] = target: ADRA2B-V2R-NTEV-tevS-GV (human) (UniProt P18089); assay: split reporter (BiFC, NanoBiT); multiplexed GPCRprofiler: split TEV with EXT barcode read-out, U2OS cells transiently transfected with GPCR-V2R-NTEV-tevS-GV and β-arrestin2delta-CTEV, pooled; serotonin, dopamine, epinephrine, vasopressin, somatostatin or their mix, 100 pM to 100 µM, 6 h; also with paliperidone or aripiprazole alone or with an agonist mix (1 µM each, with histamine); fold change over unstimulated
[11] = target: ADRA2C-V2R-NTEV-tevS-GV (human) (UniProt P18825); assay: as above
[12] = target: DRD1-V2R-NTEV-tevS-GV (human) (UniProt P21728); assay: as above
[13] = target: DRD2-V2R-NTEV-tevS-GV (human) (UniProt P14416); assay: as above
[14] = target: DRD3-V2R-NTEV-tevS-GV (human) (UniProt P35462); assay: as above
[15] = target: SSTR1-V2R-NTEV-tevS-GV (human) (UniProt P30872); assay: as above
SSTR2 and SSTR3 = assay: as above

Sequence of β-arrestin2delta-CTEV (P32121 1-383, stated change not applied): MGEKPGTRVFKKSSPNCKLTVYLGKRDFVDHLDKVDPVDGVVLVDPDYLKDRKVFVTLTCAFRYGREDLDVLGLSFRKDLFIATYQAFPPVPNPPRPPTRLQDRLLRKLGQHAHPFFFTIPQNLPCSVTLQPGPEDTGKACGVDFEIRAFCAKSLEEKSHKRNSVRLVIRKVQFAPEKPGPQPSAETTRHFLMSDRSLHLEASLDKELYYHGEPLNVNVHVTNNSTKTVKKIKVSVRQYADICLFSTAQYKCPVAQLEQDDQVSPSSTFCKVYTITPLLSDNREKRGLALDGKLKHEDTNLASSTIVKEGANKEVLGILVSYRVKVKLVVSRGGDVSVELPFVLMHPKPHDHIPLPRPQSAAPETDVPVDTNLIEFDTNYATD
Sequence of ADRA1A-V2R-NTEV-tevS-GV (human) (P35348 whole entry): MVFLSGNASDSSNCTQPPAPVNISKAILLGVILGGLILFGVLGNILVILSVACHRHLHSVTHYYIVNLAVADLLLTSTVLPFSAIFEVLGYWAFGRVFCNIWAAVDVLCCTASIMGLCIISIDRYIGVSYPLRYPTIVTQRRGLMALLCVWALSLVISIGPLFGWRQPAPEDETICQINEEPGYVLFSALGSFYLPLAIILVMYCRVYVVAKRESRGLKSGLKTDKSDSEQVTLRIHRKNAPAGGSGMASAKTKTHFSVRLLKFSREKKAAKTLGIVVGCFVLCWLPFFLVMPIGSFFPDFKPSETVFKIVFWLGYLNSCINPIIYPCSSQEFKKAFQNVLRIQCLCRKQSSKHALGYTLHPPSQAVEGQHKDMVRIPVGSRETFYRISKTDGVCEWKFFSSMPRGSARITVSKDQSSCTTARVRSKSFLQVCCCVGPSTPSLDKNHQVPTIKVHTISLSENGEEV
Sequence of AVPR1A-V2R-NTEV-tevS-GV (human) (P37288 whole entry): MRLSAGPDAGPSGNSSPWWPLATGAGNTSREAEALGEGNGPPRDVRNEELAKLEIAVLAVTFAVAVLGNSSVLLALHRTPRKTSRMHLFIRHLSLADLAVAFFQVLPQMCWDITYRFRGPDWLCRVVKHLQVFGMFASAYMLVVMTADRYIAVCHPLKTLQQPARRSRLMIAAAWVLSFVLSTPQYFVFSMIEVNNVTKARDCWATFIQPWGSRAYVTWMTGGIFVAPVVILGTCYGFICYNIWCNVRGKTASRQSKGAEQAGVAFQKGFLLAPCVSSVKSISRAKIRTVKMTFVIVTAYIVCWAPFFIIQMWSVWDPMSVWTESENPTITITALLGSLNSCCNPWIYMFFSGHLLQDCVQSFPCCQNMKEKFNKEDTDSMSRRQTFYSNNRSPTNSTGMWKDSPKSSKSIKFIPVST
Sequence of ADRA2C-V2R-NTEV-tevS-GV (human) (P18825 whole entry): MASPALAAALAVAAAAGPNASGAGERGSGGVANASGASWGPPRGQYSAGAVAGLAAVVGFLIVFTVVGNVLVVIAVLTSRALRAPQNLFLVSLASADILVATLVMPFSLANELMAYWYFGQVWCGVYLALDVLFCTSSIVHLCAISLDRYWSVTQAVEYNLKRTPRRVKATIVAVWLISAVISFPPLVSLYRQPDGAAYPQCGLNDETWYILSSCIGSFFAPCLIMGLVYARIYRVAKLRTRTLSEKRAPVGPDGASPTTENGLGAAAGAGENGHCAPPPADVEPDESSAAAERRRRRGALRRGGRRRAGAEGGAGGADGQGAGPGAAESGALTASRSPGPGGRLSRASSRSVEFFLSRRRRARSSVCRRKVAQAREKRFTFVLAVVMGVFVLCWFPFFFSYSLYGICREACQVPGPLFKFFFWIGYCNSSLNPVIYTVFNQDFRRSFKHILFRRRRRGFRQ
Sequence of ADRA2B-V2R-NTEV-tevS-GV (human) (P18089 whole entry): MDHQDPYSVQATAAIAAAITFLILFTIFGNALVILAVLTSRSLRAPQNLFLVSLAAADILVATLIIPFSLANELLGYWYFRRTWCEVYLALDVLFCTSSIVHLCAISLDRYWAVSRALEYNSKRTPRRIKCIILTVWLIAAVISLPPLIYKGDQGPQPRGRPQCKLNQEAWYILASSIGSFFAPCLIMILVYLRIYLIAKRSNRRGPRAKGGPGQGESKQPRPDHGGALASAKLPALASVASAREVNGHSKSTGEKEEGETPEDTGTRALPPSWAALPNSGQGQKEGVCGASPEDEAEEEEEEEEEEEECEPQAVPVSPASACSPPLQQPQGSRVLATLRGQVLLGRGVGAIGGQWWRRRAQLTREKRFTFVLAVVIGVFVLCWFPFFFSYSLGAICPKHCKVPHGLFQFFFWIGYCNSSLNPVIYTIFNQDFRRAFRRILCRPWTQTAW
Sequence of SSTR1-V2R-NTEV-tevS-GV (human) (P30872 whole entry): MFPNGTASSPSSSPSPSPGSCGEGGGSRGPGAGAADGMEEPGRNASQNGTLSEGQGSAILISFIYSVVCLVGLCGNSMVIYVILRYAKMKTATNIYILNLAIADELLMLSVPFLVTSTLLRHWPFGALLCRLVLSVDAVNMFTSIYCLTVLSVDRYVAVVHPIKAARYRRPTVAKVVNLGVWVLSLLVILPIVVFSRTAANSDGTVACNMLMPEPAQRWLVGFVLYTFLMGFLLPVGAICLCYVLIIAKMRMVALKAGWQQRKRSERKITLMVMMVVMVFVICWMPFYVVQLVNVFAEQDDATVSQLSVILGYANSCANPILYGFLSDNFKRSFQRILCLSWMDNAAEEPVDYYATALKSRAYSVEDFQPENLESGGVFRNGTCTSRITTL
Sequence of DRD3-V2R-NTEV-tevS-GV (human) (P35462 whole entry): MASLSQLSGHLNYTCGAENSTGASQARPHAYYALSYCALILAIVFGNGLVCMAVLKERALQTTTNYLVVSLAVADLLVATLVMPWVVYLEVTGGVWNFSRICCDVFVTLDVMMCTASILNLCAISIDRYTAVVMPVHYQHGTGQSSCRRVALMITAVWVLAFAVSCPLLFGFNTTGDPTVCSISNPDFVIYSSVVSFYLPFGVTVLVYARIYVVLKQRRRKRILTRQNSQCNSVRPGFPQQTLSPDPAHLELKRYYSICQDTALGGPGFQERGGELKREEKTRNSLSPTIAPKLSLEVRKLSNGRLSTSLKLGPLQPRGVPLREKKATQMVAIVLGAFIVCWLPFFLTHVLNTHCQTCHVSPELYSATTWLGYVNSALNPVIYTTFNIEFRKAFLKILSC
Sequence of DRD2-V2R-NTEV-tevS-GV (human) (P14416 whole entry): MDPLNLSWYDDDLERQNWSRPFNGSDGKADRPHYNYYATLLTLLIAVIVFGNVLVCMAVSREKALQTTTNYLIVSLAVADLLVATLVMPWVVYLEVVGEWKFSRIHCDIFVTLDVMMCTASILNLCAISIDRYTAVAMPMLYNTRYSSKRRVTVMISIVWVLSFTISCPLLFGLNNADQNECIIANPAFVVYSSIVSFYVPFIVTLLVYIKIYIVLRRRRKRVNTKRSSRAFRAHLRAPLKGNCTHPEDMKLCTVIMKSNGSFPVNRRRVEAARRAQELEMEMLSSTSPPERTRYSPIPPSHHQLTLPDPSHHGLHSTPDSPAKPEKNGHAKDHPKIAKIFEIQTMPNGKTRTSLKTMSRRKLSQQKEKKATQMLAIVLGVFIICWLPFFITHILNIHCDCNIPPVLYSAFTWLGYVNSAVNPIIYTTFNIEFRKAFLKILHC

Compound: CNC[C@H](O)c1ccc(O)c(O)c1 [Epinephrine, Epinephrine hydrochloride]
- signals of both receptor subfamilies (dopamine and adrenergic) upon stimulation [1]: elevated signals

Compound: Somatostatin
- induction rate (up to) [2]: up to 4 fold
- induction rate (up to) [3]: 9–10 fold
- induction rate (up to) [4]: 9–10 fold

Compound: [Arg8]-Vasopressin acetate salt
- receptor induction by agonist [5]: induced
- receptor induction by agonist [6]: induced

Compound: β-arrestin2delta-CTEV (from UniProt P32121 1-383) (domain or fragment)
- fold activation (split TEV signal) [7]: 314 fold
- fold activation (split TEV signal) [8]: 44.3 fold
- fold activation (split TEV signal) [9]: 89.5 fold
- fold change of receptor activation (split TEV signal) over unstimulated [10]: 10 fold
- fold change of receptor activation (split TEV signal) over unstimulated [11]: 13 fold
- fold change of receptor activation (split TEV signal) over unstimulated [12]: 2 fold
- fold change of receptor activation (split TEV signal) over unstimulated, at 10 µM serotonin [13]: 5 fold
- fold change of receptor activation (split TEV signal) over unstimulated [14]: 2 fold
- fold change of receptor activation (split TEV signal) over unstimulated [15]: 4 fold
- fold change of receptor activation (split TEV signal) over unstimulated (SSTR2 and SSTR3): 9 to 10 fold
